Measured values as given in patent US20240343831A1 (Regeneron, published 2024).

Experiments:
[1] = target: T1, ectodomain of human TMPRSS2-myc-myc-His (human, UniProt O15393 106-492); test: SPR Biacore T200, 37 C, t½ at pH 7.4 over t½ at pH 6.0
T1 construct: extracellular domain; also called hTMPRSS2-MMH; human TMPRSS2-MMH
Method: (§1) Dissociation rate constant (kd) for TMPRSS2 binding to purified anti-TMPRSS2 monoclonal antibody was determined using a real-time surface plasmon resonance based Biacore T200 biosensor platform. […] The CM5 Biacore sensor surface derivatized by amine coupling with an anti-human Fc specific mouse mAb was used to capture different anti-TMPRSS2 mAbs. All the TMPRSS2 reagents were expressed with a C-terminal myc-myc-hexahistidine tag (subsequently referred to as TMPRSS2-MMH).
(§2) Dissociation rate constants (kd) in two running buffers were determined by fitting the real-time binding sensorgrams to a 1:1 binding model using Scrubber 2.0c curve-fitting software.

[2] = target: Macaca fascicularis TMPRSS2-MMH (Macaca fascicularis); test: SPR Biacore T200, mAb captured by anti-human Fc, 37 C, HBS-P pH 7.4
[3] = target: T1, ectodomain of human TMPRSS2-myc-myc-His; test: SPR Biacore T200, mAb captured by anti-human Fc, 37 C, dissociation in PBS-T pH 6.0
[4] = target: Macaca fascicularis TMPRSS2-MMH (Macaca fascicularis); test: as above
[5] = target: T1, ectodomain of human TMPRSS2-myc-myc-His; test: SPR Biacore T200, mAb captured by anti-human Fc, 25 C, HBS-P pH 7.4
Method: (§3) The equilibrium dissociation constant (KD) for TMPRSS2 binding to different TMPRSS2 monoclonal antibodies (mAbs) was determined with a real-time surface plasmon resonance biosensor using a Biacore T200 instrument. All binding studies were performed in 10 mM HEPES, 150 mM NaCl, and 0.05% v/v Surfactant Tween-20, pH 7.4 (HBS-P) running buffer at 25° C. and 37° C. […] At the end of each cycle, the TMPRSS2 mAb captured surface was regenerated using a 12 sec injection of 20 mM phosphoric acid.
(§4) The association rate (kₐ) and dissociation rate (kd) were determined by fitting the real-time binding sensorgrams to a 1:1 binding model with mass transport limitation using Scrubber 2.0c curve-fitting software. Binding dissociation equilibrium constant (KD) and dissociative half-life (t½) were calculated from the kinetic rates as:

[6] = target: Macaca fascicularis TMPRSS2-MMH (Macaca fascicularis); test: SPR Biacore T200, 37 C, t½ at pH 7.4 over t½ at pH 6.0
[7] = target: T1, ectodomain of human TMPRSS2-myc-myc-His; test: SPR Biacore T200, mAb captured by anti-human Fc, 37 C, dissociation in PBS-T pH 7.4
Method: as §1, §2

[8] = target: T1, ectodomain of human TMPRSS2-myc-myc-His; test: SPR Biacore T200, mAb captured by anti-human Fc, 37 C, HBS-P pH 7.4
Method: as §3, §4

[9] = target: Macaca fascicularis TMPRSS2-MMH (Macaca fascicularis); test: SPR Biacore T200, mAb captured by anti-human Fc, 25 C, HBS-P pH 7.4
[10] = target: Macaca fascicularis TMPRSS2-MMH (Macaca fascicularis); test: SPR Biacore T200, mAb captured by anti-human Fc, 37 C, dissociation in PBS-T pH 7.4
[11] = target: T2, mouse TMPRSS2-MMH (mouse, UniProt Q9JIQ8 105-490); test: SPR Biacore T200, mAb captured by anti-human Fc, 25 C, HBS-P pH 7.4
T2 construct: extracellular domain; also called mTMPRSS2-MMH
Method: as §3, §4

[12] = target: T2, mouse TMPRSS2-MMH; test: SPR Biacore T200, mAb captured by anti-human Fc, 37 C, dissociation in PBS-T pH 6.0
Method: as §1, §2

[13] = target: T2, mouse TMPRSS2-MMH; test: SPR Biacore T200, mAb captured by anti-human Fc, 37 C, HBS-P pH 7.4
Method: as §3, §4

[14] = target: T2, mouse TMPRSS2-MMH; test: SPR Biacore T200, 37 C, t½ at pH 7.4 over t½ at pH 6.0
Method: as §1, §2

[15] = target: T2, mouse TMPRSS2-MMH; test: SPR Biacore T200, mAb captured by anti-human Fc, 37 C, dissociation in PBS-T pH 7.4
Method: as §1, §2

T2 sequence (Q9JIQ8 105-490): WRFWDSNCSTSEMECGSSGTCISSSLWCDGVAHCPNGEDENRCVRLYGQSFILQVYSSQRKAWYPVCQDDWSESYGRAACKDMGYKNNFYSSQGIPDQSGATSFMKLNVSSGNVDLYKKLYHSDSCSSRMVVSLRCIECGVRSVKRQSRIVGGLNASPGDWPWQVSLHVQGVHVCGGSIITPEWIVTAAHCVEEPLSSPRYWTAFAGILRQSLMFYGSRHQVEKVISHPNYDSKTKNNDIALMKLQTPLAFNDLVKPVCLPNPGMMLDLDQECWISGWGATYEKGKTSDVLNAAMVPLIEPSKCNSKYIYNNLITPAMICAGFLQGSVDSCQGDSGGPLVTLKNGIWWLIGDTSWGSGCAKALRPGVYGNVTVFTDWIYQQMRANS
T1 sequence (O15393 106-492): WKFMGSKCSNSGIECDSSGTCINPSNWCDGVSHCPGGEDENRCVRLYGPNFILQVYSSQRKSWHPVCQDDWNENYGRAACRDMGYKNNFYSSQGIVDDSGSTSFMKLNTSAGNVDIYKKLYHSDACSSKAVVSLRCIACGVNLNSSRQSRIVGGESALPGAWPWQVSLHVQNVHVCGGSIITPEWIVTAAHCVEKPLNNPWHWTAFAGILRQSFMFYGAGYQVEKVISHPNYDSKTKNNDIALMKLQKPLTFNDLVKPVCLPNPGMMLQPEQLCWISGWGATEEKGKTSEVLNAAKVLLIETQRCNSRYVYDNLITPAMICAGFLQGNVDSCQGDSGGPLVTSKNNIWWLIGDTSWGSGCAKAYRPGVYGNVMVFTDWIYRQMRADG

B1: mAb8021 (antibody, human IgG4 S228P, kappa, V domains shown)
VH: QVQLVQSGAEVKKPGASVRVSCKASGYTFTNYGITWVRQAPGQGLEWMGGISVYNGNTEYAEKFQGRVSMTTDTSTTTAYLELRSLKSDDTAVYFCARGQLDYFDPWGQGTLVTVSS
VL: EIVMTQSPATLSVSPGERATLSCRASQSVRSNLAWYQQKPGQAPSLLIYGASTRATGIPARFSGSGSGTEFTLTISSLQSEDFAVYFCLQYNNWWTFGQGTKVEIKR
notes: also called anti-TMPRSS2 mAb
B1 was tested, and the “t½ Ratio (pH 7.4/pH 6.0)” value [1] was 0.7, the 100 nM mfMPRSS2-MMH Bound (RU) [2] was 36.7 RU and the Kd [2] was 0.0141 nM. For the same binder, the koff [2] was 0.000109 s⁻¹, the kon [2] was 7.71e+06 M⁻¹ s⁻¹ and the t½ [2] was 106 min. For the same binder, the koff [3] was 0.000129 s⁻¹, the t½ [3] was 90 min and the 100 nm Ag Bound (RU) [4] was 70 RU. The koff [4] was 0.000111 s⁻¹, the t½ [4] was 104 min and the Kd [5] was 0.0299 nM. For the same binder, the koff [5] was 9.19e-05 s⁻¹, the kon [5] was 3.08e+06 M⁻¹ s⁻¹ and the t½ [5] was 126 min. The t½ Ratio (pH 7.4/pH 6.0) [6] was 0.9, the koff [7] was 0.000192 s⁻¹ and the t½ [7] was 60 min. It also gave a Kd [8] of 0.0627 nM, a koff [8] of 0.000261 s⁻¹ and a kon [8] of 4.17e+06 M⁻¹ s⁻¹. The t½ [8] was 44.2 min, the 100 nM mfTMPRSS2-MMH Bound (RU) [9] was 63.4 RU and the Kd [9] was 0.0252 nM. For the same binder, the koff [9] was 0.000113 s⁻¹, the kon [9] was 4.48e+06 M⁻¹ s⁻¹ and the t½ [9] was 102 min. The 100 nm Ag Bound (RU) [10] was 71 RU, the koff [10] was 0.000127 s⁻¹ and the t½ [10] was 91 min.

B2: mAb8029 (antibody, human IgG4 S228P, kappa, V domains shown)
VH: QLQLQESGPGLVKPSETLSLTCTVSGGSINSNSYYWGWIRQPPGKGLEWIGSIYYDRNTYYTPSLKSRVTISVDTSKNQFSLKLTSVTAADTAVYYCAREQVPGYYGMDVWGQGTTVTVSS
VL: DIQLTQSPSFLSASVGDRVTITCWASQGISRYLAWYQQKPGKTPKLLIYAASTLQSGVPSRFSGTGSGTDFTLTISNLQPEDFATYYCQQFDSYPWTFGQGTKVEIKR
notes: also called anti-TMPRSS2 mAb
In the case of B2, the “t½ Ratio (pH 7.4/pH 6.0)” value [1] is reported as 1, the 100 nM mfMPRSS2-MMH Bound (RU) [2] is reported as 35.3 RU and the Kd [2] is reported as 0.0758 nM. It also gave a koff [2] of 0.000392 s⁻¹, a kon [2] of 5.17e+06 M⁻¹ s⁻¹ and a t½ [2] of 29.5 min. For the same binder, the koff [3] was 0.000615 s⁻¹, the t½ [3] was 19 min and the 100 nm Ag Bound (RU) [4] was 94 RU. The koff [4] was 0.000339 s⁻¹, the t½ [4] was 34 min and the Kd [11] was 3.33 nM. The koff [11] was 0.000442 s⁻¹, the kon [11] was 133000 M⁻¹ s⁻¹ and the t½ [11] was 26.2 min. It also gave a Kd [5] of 0.0592 nM, a koff [5] of 0.000129 s⁻¹ and a kon [5] of 2.18e+06 M⁻¹ s⁻¹. The t½ [5] was 89.5 min, the koff [12] was 0.00257 s⁻¹ and the t½ [12] was 4 min. For the same binder, the t½ Ratio (pH 7.4/pH 6.0) [6] was 0.8, the Kd [13] was 9.75 nM and the koff [13] was 0.00209 s⁻¹. For the same binder, the kon [13] was 214000 M⁻¹ s⁻¹, the t½ [13] was 5.5 min and the “t½ Ratio (pH 7.4/pH 6.0)” value [14] was 1. For the same binder, the koff [7] was 0.000624 s⁻¹, the t½ [7] was 19 min and the Kd [8] was 0.216 nM. For the same binder, the koff [8] was 0.000673 s⁻¹, the kon [8] was 3.12e+06 M⁻¹ s⁻¹ and the t½ [8] was 17.2 min. The 100 nM mfTMPRSS2-MMH Bound (RU) [9] was 66.7 RU, the Kd [9] was 0.0609 nM and the koff [9] was 0.000196 s⁻¹. The kon [9] was 3.2e+06 M⁻¹ s⁻¹, the t½ [9] was 59.1 min and the koff [15] was 0.00246 s⁻¹. It also gave a t½ [15] of 5 min, a 100 nm Ag Bound (RU) [10] of 90 RU and a koff [10] of 0.000408 s⁻¹. It also gave a t½ [10] of 28 min.
